In publication PMC3229523, “Identification of Lactoferricin B Intracellular Targets Using an Escherichia coli Proteome Chip” (PLoS ONE, 2011):
Ends that are not written are not given here. * marks the point of attachment. Biotin = O=C1N[C@H]2[C@H](CS[C@H]2CCCCC(=O)*)N1

Legend:
Experiment in all cases: peptide or protein array; E. coli proteome chip: purified His-tagged proteins printed in duplicate on Fullmoon slides, blocked with 1% BSA; 10 nM N-terminal biotinylated LfcinB with 1% BSA, room temperature, 1 h; detected with DyLight 649-labeled streptavidin, ratio to DyLight 549-labeled anti-His antibody; ProCAT normalisation, local cut-off; triplicate chips
Settings in all cases: both partners purified
HemC = biological target: T1, HemC (E. coli K-12, UniProt P06983 1-313)
T1 construct: HemC, E. coli K-12
T1 sequence (looked up): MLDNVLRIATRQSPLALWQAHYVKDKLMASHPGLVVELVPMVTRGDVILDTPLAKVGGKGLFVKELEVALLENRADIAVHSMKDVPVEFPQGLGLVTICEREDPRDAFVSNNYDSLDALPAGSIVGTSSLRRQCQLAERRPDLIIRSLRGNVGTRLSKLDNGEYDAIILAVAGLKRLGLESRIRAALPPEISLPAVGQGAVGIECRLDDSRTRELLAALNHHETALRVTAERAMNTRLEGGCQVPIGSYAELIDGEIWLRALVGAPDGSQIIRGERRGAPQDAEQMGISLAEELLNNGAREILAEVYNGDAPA

YbaQ = biological target: T2, YbaQ (E. coli K-12, UniProt P0A9T6 1-113)
T2 construct: YbaQ, E. coli K-12
T2 sequence (looked up): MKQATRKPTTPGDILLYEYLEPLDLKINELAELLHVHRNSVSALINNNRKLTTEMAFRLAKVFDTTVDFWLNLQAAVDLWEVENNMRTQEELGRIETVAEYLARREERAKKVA

PurC = biological target: T3, PurC (E. coli K-12, UniProt P0A7D7 1-237)
T3 construct: PurC, E. coli K-12
T3 sequence (looked up): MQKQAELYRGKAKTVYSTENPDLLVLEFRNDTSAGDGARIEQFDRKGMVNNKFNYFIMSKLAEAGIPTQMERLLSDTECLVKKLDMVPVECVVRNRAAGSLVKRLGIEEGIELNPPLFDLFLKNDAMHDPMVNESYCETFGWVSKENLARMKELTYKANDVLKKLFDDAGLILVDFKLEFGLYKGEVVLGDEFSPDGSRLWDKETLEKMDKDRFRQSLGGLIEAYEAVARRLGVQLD

YgfJ = biological target: T4, YgfJ (E. coli K-12, UniProt Q46810 1-192)
T4 construct: YgfJ, E. coli K-12
T4 sequence (looked up): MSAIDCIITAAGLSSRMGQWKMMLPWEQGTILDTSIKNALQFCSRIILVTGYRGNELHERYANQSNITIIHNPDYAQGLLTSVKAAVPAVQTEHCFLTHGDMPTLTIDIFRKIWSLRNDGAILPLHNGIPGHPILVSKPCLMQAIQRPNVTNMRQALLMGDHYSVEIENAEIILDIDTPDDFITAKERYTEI

HolB = biological target: T5, HolB (E. coli K-12, UniProt P28631 1-334)
T5 construct: HolB, E. coli K-12

YpdH = biological target: T6, YpdH (E. coli K-12, UniProt P69808 1-108)
T6 construct: YpdH, E. coli K-12
T6 sequence (looked up): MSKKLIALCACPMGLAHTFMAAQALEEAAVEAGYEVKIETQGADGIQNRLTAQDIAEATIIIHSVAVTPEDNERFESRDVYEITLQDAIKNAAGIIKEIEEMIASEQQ

YbaE = biological target: T7, YbaE (E. coli K-12, UniProt P46890 1-566)
T7 construct: YbaE, E. coli K-12
T7 sequence (looked up): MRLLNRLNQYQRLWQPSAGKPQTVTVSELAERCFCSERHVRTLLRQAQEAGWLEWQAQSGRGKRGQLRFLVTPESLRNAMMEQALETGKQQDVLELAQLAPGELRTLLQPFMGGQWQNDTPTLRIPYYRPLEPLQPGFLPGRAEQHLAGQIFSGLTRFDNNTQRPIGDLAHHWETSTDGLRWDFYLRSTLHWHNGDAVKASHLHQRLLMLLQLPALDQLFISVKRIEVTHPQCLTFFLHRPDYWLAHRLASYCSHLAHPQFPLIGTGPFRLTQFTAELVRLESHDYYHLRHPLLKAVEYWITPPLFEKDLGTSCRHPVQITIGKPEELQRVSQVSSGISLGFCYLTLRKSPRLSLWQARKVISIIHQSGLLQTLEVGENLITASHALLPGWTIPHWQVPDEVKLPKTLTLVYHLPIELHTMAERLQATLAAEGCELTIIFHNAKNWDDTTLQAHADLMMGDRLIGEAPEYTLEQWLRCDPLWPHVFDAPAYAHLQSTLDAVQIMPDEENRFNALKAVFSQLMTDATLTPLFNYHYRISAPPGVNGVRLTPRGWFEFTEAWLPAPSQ

Measured: binding result

T5 sequence (P28631 whole entry): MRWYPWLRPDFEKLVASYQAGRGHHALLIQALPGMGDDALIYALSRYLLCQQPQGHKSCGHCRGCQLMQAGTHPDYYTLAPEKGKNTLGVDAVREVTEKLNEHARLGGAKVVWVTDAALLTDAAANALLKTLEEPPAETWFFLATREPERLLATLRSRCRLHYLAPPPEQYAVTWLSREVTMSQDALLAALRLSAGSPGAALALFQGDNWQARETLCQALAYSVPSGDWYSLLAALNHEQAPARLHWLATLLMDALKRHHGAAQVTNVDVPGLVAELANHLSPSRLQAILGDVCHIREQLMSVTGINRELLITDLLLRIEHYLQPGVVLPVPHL

B1: N-terminal biotinylated Lactoferricin B (peptide, UniProt P24627 36-60, looked up)
peptide: Biotin-FKCRRWQWRMKKLGAPSITCVRRAF
modifications: ends and bridges not checked
notes: lactoferricin B (LfcinB), cationic antimicrobial peptide of 25 amino acids; also called biotinylated LfcinB; biotin-labeled LfcinB; source: bought: Kelowna Inc
binds: HemC | YbaQ | PurC | YgfJ | HolB | YpdH | YbaE
